# From US20240043869A1
# Molecular target: rAAV9 vector (AAV9 capsid: full, intermediate and empty capsids) comprising a mini-dystrophin transgene (adeno-associated virus serotype 9 (AAV9))
# Assay: affinity chromatography lifecycle study, unbound vg in flow through, resin challenge 7.5x10^13 vg/mL resin
substance,measurement,value
POROS CaptureSelect AAV9 affinity resin ligand (VHH),% unbound vg,< 2%
